# B1: C-type lectin domain family 2 member D (Homo sapiens), Q9UHP7-1 (parent)
# chain: MHDSNNVEKDITPSELPANPGCLHSKEHSIKATLIWRLFFLIMFLTIIVCGMVAALSAIRANCHQEPSVCLQAACPESWIGFQRKCFYFSDDTKNWTSSQRFCDSQDADLAQVESFQELNFLLRYKGPSDHWIGLSREQGQPWKWINGTEWTRQFPILGAGECAYLNDKGASSARHYTERKWICSKSDIHV
# Variants of: B1
# Conditions: with klrb1_human KLRB1, Q12918
# klrb1_human KLRB1, Q12918, sequence (Q12918 whole entry): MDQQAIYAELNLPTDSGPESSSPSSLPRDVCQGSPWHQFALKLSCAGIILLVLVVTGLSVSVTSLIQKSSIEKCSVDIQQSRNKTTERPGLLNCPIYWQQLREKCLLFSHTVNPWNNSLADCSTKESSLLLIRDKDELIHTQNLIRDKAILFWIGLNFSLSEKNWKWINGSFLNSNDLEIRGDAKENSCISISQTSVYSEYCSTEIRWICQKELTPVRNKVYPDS
row,Variant,effect of a mutation on the interaction
1,K181E,disrupting interaction strength
2,N167A,decreasing interaction strength
3,R175E,disrupting interaction strength
4,R180E,disrupting interaction strength
5,K169E,disrupting interaction strength
6,Y165A,decreasing interaction strength

# Variants of: B1
# Conditions: with klrb1_human KLRB1, Q12918
# Remark: another data set of the same source
row,Variant,effect of a mutation on the interaction
1,K169E,increasing interaction strength
